1 substance from PMC9359980 can be followed below.

Assay [1] has as its target Photozipper (PZ), wild-type (Vaucheria frigida). The assay is described as follows: high-speed atomic force microscopy (HS-AFM); molecules on mica in Buffer-B (1 mM NaCl, 20 mM Tris-HCl pH 7, 1 mM DTT, 0.2 mM PMSF), room temperature, blue light illumination (450 nm, about 4.3 mW/mm^2); 13-50 nM protein; dimer to monomers.
Assay [2] has the same target. The assay is described as follows: high-speed atomic force microscopy (HS-AFM); molecules on mica in Buffer-B (1 mM NaCl, 20 mM Tris-HCl pH 7, 1 mM DTT, 0.2 mM PMSF), room temperature, dark conditions (prepared under dim red light); 13-38 nM protein; dimer to monomers.

As for “Photozipper (PZ), wild-type (domain or fragment)”, in assay [1], the average dimer lifetime turned out to be 86 s; the stoichiometry N (in general, a count of units in the complex or per binding partner) stood at 2; the time constant of the dimerization rate (38 nM PZ, after the start of blue light) was 255 s. Further, in assay [2], the average dimer lifetime was 8.1 s and the stoichiometry N amounted to 2.
